Source: patent US20230034906A1 (TRINOMAB BIOTECH, published 2023)

What was measured:
Assay in all cases: indirect ELISA, antibody titrated on gB glycoprotein mutant
[1] = molecular target: T1, gB_Towne protein with N281 mutated into glutamine (human cytomegalovirus, strain Towne, UniProt F5HB53 25-700)
T1 chain: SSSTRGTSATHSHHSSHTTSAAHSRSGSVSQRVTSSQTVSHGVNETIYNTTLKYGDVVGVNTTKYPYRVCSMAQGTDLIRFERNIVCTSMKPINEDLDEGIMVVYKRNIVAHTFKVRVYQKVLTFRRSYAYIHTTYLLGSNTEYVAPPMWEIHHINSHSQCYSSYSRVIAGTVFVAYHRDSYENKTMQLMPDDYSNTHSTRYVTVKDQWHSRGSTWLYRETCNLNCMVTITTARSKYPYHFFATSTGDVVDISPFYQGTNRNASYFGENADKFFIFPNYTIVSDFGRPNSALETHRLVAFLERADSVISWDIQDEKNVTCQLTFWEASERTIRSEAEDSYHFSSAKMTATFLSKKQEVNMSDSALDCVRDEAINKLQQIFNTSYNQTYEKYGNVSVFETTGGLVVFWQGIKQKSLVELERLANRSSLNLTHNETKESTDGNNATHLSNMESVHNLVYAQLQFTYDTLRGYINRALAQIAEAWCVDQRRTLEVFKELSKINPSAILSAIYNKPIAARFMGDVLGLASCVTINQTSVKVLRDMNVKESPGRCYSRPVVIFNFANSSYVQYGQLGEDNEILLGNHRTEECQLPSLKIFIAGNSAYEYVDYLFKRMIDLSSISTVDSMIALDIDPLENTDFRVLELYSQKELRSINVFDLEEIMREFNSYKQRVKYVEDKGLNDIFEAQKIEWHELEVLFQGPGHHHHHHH

[2] = molecular target: T2, gB_Towne protein with N383 mutated into glutamine (human cytomegalovirus, strain Towne, UniProt F5HB53 25-700)
T2 chain: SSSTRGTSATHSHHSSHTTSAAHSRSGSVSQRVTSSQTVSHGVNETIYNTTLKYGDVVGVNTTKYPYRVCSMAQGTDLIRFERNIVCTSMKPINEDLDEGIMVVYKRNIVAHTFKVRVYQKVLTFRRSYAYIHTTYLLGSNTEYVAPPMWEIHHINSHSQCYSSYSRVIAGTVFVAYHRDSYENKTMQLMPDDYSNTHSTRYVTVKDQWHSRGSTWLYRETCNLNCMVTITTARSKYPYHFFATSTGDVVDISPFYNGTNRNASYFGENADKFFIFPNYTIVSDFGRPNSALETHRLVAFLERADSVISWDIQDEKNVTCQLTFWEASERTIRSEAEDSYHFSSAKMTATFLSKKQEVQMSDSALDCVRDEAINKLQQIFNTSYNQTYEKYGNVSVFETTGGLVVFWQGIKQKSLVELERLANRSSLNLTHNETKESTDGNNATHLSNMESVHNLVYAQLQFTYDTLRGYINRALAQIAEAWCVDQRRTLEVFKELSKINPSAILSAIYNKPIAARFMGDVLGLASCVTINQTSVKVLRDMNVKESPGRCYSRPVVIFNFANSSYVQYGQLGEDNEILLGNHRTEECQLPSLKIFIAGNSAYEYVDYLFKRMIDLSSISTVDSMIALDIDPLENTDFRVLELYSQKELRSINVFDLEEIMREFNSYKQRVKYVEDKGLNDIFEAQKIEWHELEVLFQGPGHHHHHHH

[3] = molecular target: T3, gB_Towne protein with N405 mutated into glutamine (human cytomegalovirus, strain Towne, UniProt F5HB53 25-700)
T3 chain: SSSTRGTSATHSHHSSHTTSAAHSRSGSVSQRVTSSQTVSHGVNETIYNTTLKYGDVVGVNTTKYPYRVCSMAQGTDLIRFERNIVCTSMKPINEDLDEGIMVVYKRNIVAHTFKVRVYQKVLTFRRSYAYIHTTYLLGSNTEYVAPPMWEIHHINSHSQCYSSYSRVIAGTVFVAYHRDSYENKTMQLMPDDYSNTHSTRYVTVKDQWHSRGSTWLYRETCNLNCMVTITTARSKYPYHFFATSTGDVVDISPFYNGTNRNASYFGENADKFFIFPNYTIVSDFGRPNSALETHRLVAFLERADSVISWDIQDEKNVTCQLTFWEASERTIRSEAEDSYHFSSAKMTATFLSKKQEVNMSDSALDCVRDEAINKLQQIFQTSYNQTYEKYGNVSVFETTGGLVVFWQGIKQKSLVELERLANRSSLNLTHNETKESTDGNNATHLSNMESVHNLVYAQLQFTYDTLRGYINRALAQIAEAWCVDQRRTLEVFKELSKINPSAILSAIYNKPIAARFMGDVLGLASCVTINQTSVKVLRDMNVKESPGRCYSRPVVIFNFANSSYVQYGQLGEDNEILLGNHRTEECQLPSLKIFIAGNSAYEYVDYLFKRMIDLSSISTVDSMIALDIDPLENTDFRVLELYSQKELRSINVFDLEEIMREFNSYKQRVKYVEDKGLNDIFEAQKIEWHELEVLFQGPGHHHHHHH

[4] = molecular target: T4, gB_Towne protein with N409 mutated into glutamine (human cytomegalovirus, strain Towne, UniProt F5HB53 25-700)
T4 chain: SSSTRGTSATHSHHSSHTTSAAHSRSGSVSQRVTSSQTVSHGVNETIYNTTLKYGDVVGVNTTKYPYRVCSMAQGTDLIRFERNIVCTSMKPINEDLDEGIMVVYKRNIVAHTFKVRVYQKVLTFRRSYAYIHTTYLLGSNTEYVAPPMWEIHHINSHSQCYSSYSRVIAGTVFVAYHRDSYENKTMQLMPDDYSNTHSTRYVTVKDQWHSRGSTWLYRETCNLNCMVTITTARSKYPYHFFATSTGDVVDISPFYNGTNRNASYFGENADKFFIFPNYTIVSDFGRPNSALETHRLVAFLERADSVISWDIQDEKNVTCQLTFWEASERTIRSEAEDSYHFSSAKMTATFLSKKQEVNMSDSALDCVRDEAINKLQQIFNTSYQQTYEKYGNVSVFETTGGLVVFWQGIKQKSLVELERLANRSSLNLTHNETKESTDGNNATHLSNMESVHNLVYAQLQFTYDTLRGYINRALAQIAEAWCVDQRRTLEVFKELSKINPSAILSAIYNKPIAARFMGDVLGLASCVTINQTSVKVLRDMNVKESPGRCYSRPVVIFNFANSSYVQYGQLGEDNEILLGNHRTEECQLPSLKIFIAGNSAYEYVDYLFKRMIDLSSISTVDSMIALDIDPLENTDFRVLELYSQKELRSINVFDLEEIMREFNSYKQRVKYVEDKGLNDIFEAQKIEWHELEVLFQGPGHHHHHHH

Measured: binding result

B1: TRN1019 (antibody, V domains shown)
VH: QVQLVQSGAEVKKPGESLKISCKGSGYTFTNYWIGWVRQMPGAGLEWMAIIFPRDSYSAYSPSFQGRVTISVDKSISTAYLHWSSLEASDTAVYYCAIYNDLRSGNSWGQGTPLIVSS
VL: DIQMTQSPSSLSASVGDRVTITCRASQSITKYLNWYQQKPGRAPKLLIHTTSTLQSGVPSRFSGSGSGTDFTLTISSLQLEDFGTYYCQQSFSTLWTFGQGTKLDIKR
notes: Fully human antibody; kappa light chain
binds: [1] | [2] | [3] | [4]
